According to patent US20140099308A1 (IMMUNOGEN, published 2014):
Residue numbers refer to the chain shown, from its start. Read-outs that look alike come from different tables or passages of the source.

B1: muEGFR-7 antibody (antibody, V domains shown)
VH: QVQLQQSGAELARPGASVKLSCKASGYTFTSYWMQWVKQRPGQGLECIGTIYPGDGDTTYTQKFKGKATLTADKSSSTAYMQLSSLASEDSAVYYCARYDAPGYAMDYWGQGTSVTVSS
VL: DIQMTQSPSSLSASLGGKVTITCKASQDINNYLAWYQHKPGKGPRLLIHYTSTLHPGIPSRFSGSGSGRDYSFSISNLEPEDIATYYCLQYDNLLYTFGGGTKLEIKR
notes: Murine hybridoma antibody (ATCC PTA-11332)
B2: muEGFR-12 antibody (antibody, V domains shown)
VH: B1 VH with A9T, T59R, T61I
VL: DVQITQSPSYLAASPGETITINCRASKSISKYLAWYQEKPGKTNKLLIYSGSTLQSGIPSRFSGSGSGTDFTLTISSLEPEDFAMYYCQQHNEYPWTFGGGTKLEIK
notes: Murine hybridoma antibody (ATCC PTA-11333)
B3: muEGFR-6 antibody (antibody, V domains shown)
VH: B1 VH with T50A, I51L, T58A, T59R, K74R, S118A
VL: B1 VL with L33I
notes: Murine hybridoma antibody (ATCC PTA-11331)

Tests used:
[1] = target: T1, human EGFR (human, UniProt P00533 25-1210); experiment: flow cytometry competition on A431 cells; competitor: 10 nM biotinylated TGFα
[2] = target: T2, chEGFRdIII-Fc (murine; human, UniProt Q01279 334-483; P00533 484-505; Q01279 506-525); experiment: ELISA on the EGFR ECD-Fc construct (A450)
T2 construct: range 310-459;range 460-481;range 482-501; the split into three pieces follows from that; also called human/murine EGFR chimera; not shown: murine IgG2A hinge, CH2, and CH3 region

[3] = target: T3, huEGFR-Fc (human; murine, UniProt P00533 25-645); experiment: ELISA on the EGFR ECD-Fc construct (A450)
T3 construct: extracellular domain; also called human EGFR ECD Fc fusion; wild type human EGFR; not shown: murine IgG2A hinge, CH2, and CH3 region (pmuFc2ANL vector)

[4] = target: T4, huEGFRdIII-Fc (human; murine, UniProt P00533 334-525); experiment: ELISA on the EGFR ECD-Fc construct (A450)
T4 construct: range 310-501; Residue numbers count on the mature receptor, not on the precursor; also called human EGFR domain III; not shown: murine IgG2A hinge, CH2, and CH3 region

[5] = target: T1, human EGFR; experiment: flow cytometry competition on MDA-MB468 cells; competed: 0.2 nM biotinylated cetuximab; streptavidin-Alexa 488 detection
Procedure: (§1) To distinguish binding epitopes of anti-EGFR antibodies, antibody binding competition assays were done using flow cytometry. […] In brief, the biotinylated antibody was pre-mixed with varying concentration of ‘competing’ antibodies. The antibody mixture was then incubated with cells on ice for 2h. […] After washing, the cells were fixed and analyzed in FACScalibur. The geometric mean fluorescence intensity was plotted against antibody concentration in semi-log plot and normalized so that 100% represents the maximal binding of the biotinylated antibody in absence of other antibody and 0% represents the background staining in absence of the biotinylated antibody.

[6] = target: T1, human EGFR; experiment: cell-based or functional assay
[7] = target: T1, human EGFR; experiment: cell-based or functional assay; remark: listed apart in the source
[8] = target: T1, human EGFR; experiment: flow cytometry competition on MDA-MB468 cells; competed: 0.3 nM biotinylated 528 antibody; streptavidin-Alexa 488 detection
Procedure: as §1

[9] = target: T1, human EGFR; experiment: cell-based or functional assay; remark: listed apart in the source
[10] = target: T2, chEGFRdIII-Fc; experiment: ELISA on the EGFR ECD-Fc construct (A450); remark: listed apart in the source
[11] = target: T5, muEGFRdIII-Fc (murine, UniProt Q01279 334-525); experiment: ELISA on the EGFR ECD-Fc construct (A450)
T5 construct: range 310-501; Residue numbers count on the mature receptor, not on the precursor; also called murine EGFR domain III; not shown: murine IgG2A hinge, CH2, and CH3 region

[12] = target: T3, huEGFR-Fc; experiment: ELISA on the EGFR ECD-Fc construct (A450); remark: listed apart in the source
[13] = target: T4, huEGFRdIII-Fc; experiment: ELISA on the EGFR ECD-Fc construct (A450); remark: listed apart in the source
[14] = target: T1, human EGFR; experiment: flow cytometry competition on A431 cells; competitor: 1.8 nM biotinylated EGF
Procedure: To examine if the EGFR antibodies inhibit the ligand binding to the EGFR, the binding of biotinylated EGFR ligand to the A431 cells was measured by flow cytometry in the presence of anti-EGFR antibodies. […] Prior to competition assay, the binding curve of the biotinylated ligands was established. […] Cells were then washed twice with FACS buffer and incubated with streptavidin-APC conjugate (Jackson Immunoresearch) for 15 min on ice. Cells were washed twice with FACS buffer and analyzed in FACS Calibur (BD Bioscience) using FlowJo program (Tree Star). The geometric mean fluorescence intensities were plotted against the antibody concentration in a semi-log plot.

[15] = target: T2, chEGFRdIII-Fc; experiment: ELISA on the EGFR ECD-Fc construct (A450); remark: listed apart in the source
[16] = target: T5, muEGFRdIII-Fc; experiment: ELISA on the EGFR ECD-Fc construct (A450); remark: listed apart in the source
[17] = target: T3, huEGFR-Fc; experiment: ELISA on the EGFR ECD-Fc construct (A450); remark: listed apart in the source
[18] = target: T4, huEGFRdIII-Fc; experiment: ELISA on the EGFR ECD-Fc construct (A450); remark: listed apart in the source

Row | Molecule | EC50 [1] [nM] | EC50 [2] [nM] | EC50 [3] [nM] | EC50 [4] [nM] | IC50 (read off the curve) [5] [nM] | EC50 (nM), anti-proliferative activity in NCI-H292 cells [6] [nM] | EC50 (nM), anti-proliferative activity in NCI-H292 cells [7] [nM] | IC50 (read off the curve) [8] [nM] | EC50 (nM), anti-proliferative activity in HCC827 cells [9] [nM] | Maximal inhibition (%), HCC827 cells [9] [%] | EC50 [10] [nM] | binding result [11] | EC50 [12] [nM] | EC50 [13] [nM] | EC50 [14] [nM] | EC50 [15] [nM] | binding result [16] | EC50 [17] [nM] | EC50 [18] [nM]
1 | TGFα (ligand) | 1.34 | – | – | – | – | – | – | – | – | – | – | – | – | – | – | – | – | – | –
2 | B1 | – | 0.294 | 0.0328 | 0.043 | ~2 | 0.21 | 0.4 | ~2 | 0.03 | 72 | – | – | – | – | – | – | – | – | –
3 | B2 | 1.34 | – | – | – | ~2 | – | – | ~2 | 0.7 | 63 | 1.24 | no binding (tested: 10^-7 M) | 0.0485 | 0.0572 | 2.93 | – | – | – | –
4 | B3 | 1.18 | – | – | – | ~2 | 2.59 | 5.6 | ~2 | 0.3 | 72 | – | – | – | – | 2.55 | 0.867 | no binding (tested: 10^-7 M) | 0.0484 | 0.0694
